Laboratory results from US20230159662A1 (Kyowa Kirin, published 2023).

The binders below were run against human CD16a (Val type) stably expressed on NK-92 cells (NK-92/CD16 transfectant) (human, UniProt P08637 17-254) (assay: cell-based or functional assay).
Chain of human CD16a (Val type) stably expressed on NK-92 cells (NK-92/CD16 transfectant) (P08637 17-254 F176V): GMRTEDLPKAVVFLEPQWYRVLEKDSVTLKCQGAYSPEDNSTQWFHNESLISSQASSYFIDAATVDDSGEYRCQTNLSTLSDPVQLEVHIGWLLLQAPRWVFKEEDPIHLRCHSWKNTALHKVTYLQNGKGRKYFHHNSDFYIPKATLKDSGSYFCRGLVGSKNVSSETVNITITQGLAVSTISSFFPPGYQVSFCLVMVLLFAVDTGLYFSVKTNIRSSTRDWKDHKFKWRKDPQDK

| Binder | relative ADCC activity (AAA = 100) |
| --- | --- |
| human IgG1 anti-human CCR4 antibody (KM2160), S298A/E333A/K334A (AAA) (antibody) heavy: EVQLVESGGDLMKPGGSLKISCAASGFIFSNYGMSWVRQTPDMRLEWVATISSASTYSYYPDSVKGRFTISRDNAENSLYLQMNSLRSEDTGIYYCGRHSDGNFAFGYWGRGTLVTVSAASTKGPSVFPLAPSSKSTSGGTAALGCLVKDYFPEPVTVSWNSGALTSGVHTFPAVLQSSGLYSLSSVVTVPSSSLGTQTYICNVNHKPSNTKVDKKVEPKSCDKTHTCPPCPAPELLGGPSVFLFPPKPKDTLMISRTPEVTCVVVDVSHEDPEVKFNWYVDGVEVHNAKTKPREEQYNATYRVVSVLTVLHQDWLNGKEYKCKVSNKALPAPIAATISKAKGQPREPQVYTLPPSRDELTKNQVSLTCLVKGFYPSDIAVEWESNGQPENNYKTTPPVLDSDGSFFLYSKLTVDKSRWQQGNVFSCSVMHEALHNHYTQKSLSLSPGK light: DVLMTQTPLSLPVSLGDQASISCRSSRNIVHINGDTYLEWYLQRPGQSPKLLIYKVSNRFSGVPDRFSGSGSGTDFTLKISRVEAEDLGVYYCFQGSLLPWTFGGGTRLEIRRTVAAPSVFIFPPSDEQLKSGTASVVCLLNNFYPREAKVQWKVDNALQSGNSQESVTEQDSKDSTYSLSSTLTLSKADYEKHKVYACEVTHQGLSSPVTKSFNRGEC | 100 relative, AAA at 0.1 µg/mL = 100 |
| human IgG1 anti-human CCR4 antibody (KM2160), S298A/E333A/K334A (AAA)/P247L (antibody) heavy: EVQLVESGGDLMKPGGSLKISCAASGFIFSNYGMSWVRQTPDMRLEWVATISSASTYSYYPDSVKGRFTISRDNAENSLYLQMNSLRSEDTGIYYCGRHSDGNFAFGYWGRGTLVTVSAASTKGPSVFPLAPSSKSTSGGTAALGCLVKDYFPEPVTVSWNSGALTSGVHTFPAVLQSSGLYSLSSVVTVPSSSLGTQTYICNVNHKPSNTKVDKKVEPKSCDKTHTCPPCPAPELLGGPSVFLFPPKLKDTLMISRTPEVTCVVVDVSHEDPEVKFNWYVDGVEVHNAKTKPREEQYNATYRVVSVLTVLHQDWLNGKEYKCKVSNKALPAPIAATISKAKGQPREPQVYTLPPSRDELTKNQVSLTCLVKGFYPSDIAVEWESNGQPENNYKTTPPVLDSDGSFFLYSKLTVDKSRWQQGNVFSCSVMHEALHNHYTQKSLSLSPGK light: DVLMTQTPLSLPVSLGDQASISCRSSRNIVHINGDTYLEWYLQRPGQSPKLLIYKVSNRFSGVPDRFSGSGSGTDFTLKISRVEAEDLGVYYCFQGSLLPWTFGGGTRLEIRRTVAAPSVFIFPPSDEQLKSGTASVVCLLNNFYPREAKVQWKVDNALQSGNSQESVTEQDSKDSTYSLSSTLTLSKADYEKHKVYACEVTHQGLSSPVTKSFNRGEC | 160 relative, AAA at 0.1 µg/mL = 100 |
| human IgG1 anti-human CCR4 antibody (KM2160), S298A/E333A/R292L/K334E (antibody) heavy: EVQLVESGGDLMKPGGSLKISCAASGFIFSNYGMSWVRQTPDMRLEWVATISSASTYSYYPDSVKGRFTISRDNAENSLYLQMNSLRSEDTGIYYCGRHSDGNFAFGYWGRGTLVTVSAASTKGPSVFPLAPSSKSTSGGTAALGCLVKDYFPEPVTVSWNSGALTSGVHTFPAVLQSSGLYSLSSVVTVPSSSLGTQTYICNVNHKPSNTKVDKKVEPKSCDKTHTCPPCPAPELLGGPSVFLFPPKPKDTLMISRTPEVTCVVVDVSHEDPEVKFNWYVDGVEVHNAKTKPLEEQYNATYRVVSVLTVLHQDWLNGKEYKCKVSNKALPAPIAETISKAKGQPREPQVYTLPPSRDELTKNQVSLTCLVKGFYPSDIAVEWESNGQPENNYKTTPPVLDSDGSFFLYSKLTVDKSRWQQGNVFSCSVMHEALHNHYTQKSLSLSPGK light: DVLMTQTPLSLPVSLGDQASISCRSSRNIVHINGDTYLEWYLQRPGQSPKLLIYKVSNRFSGVPDRFSGSGSGTDFTLKISRVEAEDLGVYYCFQGSLLPWTFGGGTRLEIRRTVAAPSVFIFPPSDEQLKSGTASVVCLLNNFYPREAKVQWKVDNALQSGNSQESVTEQDSKDSTYSLSSTLTLSKADYEKHKVYACEVTHQGLSSPVTKSFNRGEC | 163 relative, AAA at 0.1 µg/mL = 100 |
| human IgG1 anti-human CCR4 antibody (KM2160), S239D/I332E (DE) (antibody) heavy: not shown light: DVLMTQTPLSLPVSLGDQASISCRSSRNIVHINGDTYLEWYLQRPGQSPKLLIYKVSNRFSGVPDRFSGSGSGTDFTLKISRVEAEDLGVYYCFQGSLLPWTFGGGTRLEIRRTVAAPSVFIFPPSDEQLKSGTASVVCLLNNFYPREAKVQWKVDNALQSGNSQESVTEQDSKDSTYSLSSTLTLSKADYEKHKVYACEVTHQGLSSPVTKSFNRGEC | 201 relative, AAA at 0.1 µg/mL = 100 |
| human IgG1 anti-human CCR4 antibody (KM2160), S298A/E333A/K334A (AAA)/H268E (antibody) heavy: EVQLVESGGDLMKPGGSLKISCAASGFIFSNYGMSWVRQTPDMRLEWVATISSASTYSYYPDSVKGRFTISRDNAENSLYLQMNSLRSEDTGIYYCGRHSDGNFAFGYWGRGTLVTVSAASTKGPSVFPLAPSSKSTSGGTAALGCLVKDYFPEPVTVSWNSGALTSGVHTFPAVLQSSGLYSLSSVVTVPSSSLGTQTYICNVNHKPSNTKVDKKVEPKSCDKTHTCPPCPAPELLGGPSVFLFPPKPKDTLMISRTPEVTCVVVDVSEEDPEVKFNWYVDGVEVHNAKTKPREEQYNATYRVVSVLTVLHQDWLNGKEYKCKVSNKALPAPIAATISKAKGQPREPQVYTLPPSRDELTKNQVSLTCLVKGFYPSDIAVEWESNGQPENNYKTTPPVLDSDGSFFLYSKLTVDKSRWQQGNVFSCSVMHEALHNHYTQKSLSLSPGK light: DVLMTQTPLSLPVSLGDQASISCRSSRNIVHINGDTYLEWYLQRPGQSPKLLIYKVSNRFSGVPDRFSGSGSGTDFTLKISRVEAEDLGVYYCFQGSLLPWTFGGGTRLEIRRTVAAPSVFIFPPSDEQLKSGTASVVCLLNNFYPREAKVQWKVDNALQSGNSQESVTEQDSKDSTYSLSSTLTLSKADYEKHKVYACEVTHQGLSSPVTKSFNRGEC | 164 relative, AAA at 0.1 µg/mL = 100 |
| human IgG1 anti-human CCR4 antibody (KM2160), S298A/E333A/K334A (AAA)/P247L/N421K (antibody) heavy: EVQLVESGGDLMKPGGSLKISCAASGFIFSNYGMSWVRQTPDMRLEWVATISSASTYSYYPDSVKGRFTISRDNAENSLYLQMNSLRSEDTGIYYCGRHSDGNFAFGYWGRGTLVTVSAASTKGPSVFPLAPSSKSTSGGTAALGCLVKDYFPEPVTVSWNSGALTSGVHTFPAVLQSSGLYSLSSVVTVPSSSLGTQTYICNVNHKPSNTKVDKKVEPKSCDKTHTCPPCPAPELLGGPSVFLFPPKLKDTLMISRTPEVTCVVVDVSHEDPEVKFNWYVDGVEVHNAKTKPREEQYNATYRVVSVLTVLHQDWLNGKEYKCKVSNKALPAPIAATISKAKGQPREPQVYTLPPSRDELTKNQVSLTCLVKGFYPSDIAVEWESNGQPENNYKTTPPVLDSDGSFFLYSKLTVDKSRWQQGKVFSCSVMHEALHNHYTQKSLSLSPGK light: DVLMTQTPLSLPVSLGDQASISCRSSRNIVHINGDTYLEWYLQRPGQSPKLLIYKVSNRFSGVPDRFSGSGSGTDFTLKISRVEAEDLGVYYCFQGSLLPWTFGGGTRLEIRRTVAAPSVFIFPPSDEQLKSGTASVVCLLNNFYPREAKVQWKVDNALQSGNSQESVTEQDSKDSTYSLSSTLTLSKADYEKHKVYACEVTHQGLSSPVTKSFNRGEC | 175 relative, AAA at 0.1 µg/mL = 100 |
| human IgG1 anti-human CCR4 antibody (KM2160), S298A/E333A/K334A (AAA)/K326T (antibody) heavy: EVQLVESGGDLMKPGGSLKISCAASGFIFSNYGMSWVRQTPDMRLEWVATISSASTYSYYPDSVKGRFTISRDNAENSLYLQMNSLRSEDTGIYYCGRHSDGNFAFGYWGRGTLVTVSAASTKGPSVFPLAPSSKSTSGGTAALGCLVKDYFPEPVTVSWNSGALTSGVHTFPAVLQSSGLYSLSSVVTVPSSSLGTQTYICNVNHKPSNTKVDKKVEPKSCDKTHTCPPCPAPELLGGPSVFLFPPKPKDTLMISRTPEVTCVVVDVSHEDPEVKFNWYVDGVEVHNAKTKPREEQYNATYRVVSVLTVLHQDWLNGKEYKCKVSNTALPAPIAATISKAKGQPREPQVYTLPPSRDELTKNQVSLTCLVKGFYPSDIAVEWESNGQPENNYKTTPPVLDSDGSFFLYSKLTVDKSRWQQGNVFSCSVMHEALHNHYTQKSLSLSPGK light: DVLMTQTPLSLPVSLGDQASISCRSSRNIVHINGDTYLEWYLQRPGQSPKLLIYKVSNRFSGVPDRFSGSGSGTDFTLKISRVEAEDLGVYYCFQGSLLPWTFGGGTRLEIRRTVAAPSVFIFPPSDEQLKSGTASVVCLLNNFYPREAKVQWKVDNALQSGNSQESVTEQDSKDSTYSLSSTLTLSKADYEKHKVYACEVTHQGLSSPVTKSFNRGEC | 136 relative, AAA at 0.1 µg/mL = 100 |
| human IgG1 anti-human CCR4 antibody (KM2160), S239D/K326T (antibody) heavy: not shown light: DVLMTQTPLSLPVSLGDQASISCRSSRNIVHINGDTYLEWYLQRPGQSPKLLIYKVSNRFSGVPDRFSGSGSGTDFTLKISRVEAEDLGVYYCFQGSLLPWTFGGGTRLEIRRTVAAPSVFIFPPSDEQLKSGTASVVCLLNNFYPREAKVQWKVDNALQSGNSQESVTEQDSKDSTYSLSSTLTLSKADYEKHKVYACEVTHQGLSSPVTKSFNRGEC | 179 relative, AAA at 0.1 µg/mL = 100 |
| human IgG1 anti-human CCR4 antibody (KM2160), S298A/E333A/K334A (AAA)/R293P (antibody) heavy: EVQLVESGGDLMKPGGSLKISCAASGFIFSNYGMSWVRQTPDMRLEWVATISSASTYSYYPDSVKGRFTISRDNAENSLYLQMNSLRSEDTGIYYCGRHSDGNFAFGYWGRGTLVTVSAASTKGPSVFPLAPSSKSTSGGTAALGCLVKDYFPEPVTVSWNSGALTSGVHTFPAVLQSSGLYSLSSVVTVPSSSLGTQTYICNVNHKPSNTKVDKKVEPKSCDKTHTCPPCPAPELLGGPSVFLFPPKPKDTLMISRTPEVTCVVVDVSHEDPEVKFNWYVDGVEVHNAKTKPPEEQYNATYRVVSVLTVLHQDWLNGKEYKCKVSNKALPAPIAATISKAKGQPREPQVYTLPPSRDELTKNQVSLTCLVKGFYPSDIAVEWESNGQPENNYKTTPPVLDSDGSFFLYSKLTVDKSRWQQGNVFSCSVMHEALHNHYTQKSLSLSPGK light: DVLMTQTPLSLPVSLGDQASISCRSSRNIVHINGDTYLEWYLQRPGQSPKLLIYKVSNRFSGVPDRFSGSGSGTDFTLKISRVEAEDLGVYYCFQGSLLPWTFGGGTRLEIRRTVAAPSVFIFPPSDEQLKSGTASVVCLLNNFYPREAKVQWKVDNALQSGNSQESVTEQDSKDSTYSLSSTLTLSKADYEKHKVYACEVTHQGLSSPVTKSFNRGEC | 125 relative, AAA at 0.1 µg/mL = 100 |
| human IgG1 anti-human CCR4 antibody (KM2160), S239D/A330F (antibody) heavy: not shown light: DVLMTQTPLSLPVSLGDQASISCRSSRNIVHINGDTYLEWYLQRPGQSPKLLIYKVSNRFSGVPDRFSGSGSGTDFTLKISRVEAEDLGVYYCFQGSLLPWTFGGGTRLEIRRTVAAPSVFIFPPSDEQLKSGTASVVCLLNNFYPREAKVQWKVDNALQSGNSQESVTEQDSKDSTYSLSSTLTLSKADYEKHKVYACEVTHQGLSSPVTKSFNRGEC | 161 relative, AAA at 0.1 µg/mL = 100 |
